# In the DeepSol protein solubility set:
# Assay: soluble on expression in E. coli; label from the status in PepcDB or PDB records
row,Sequence,soluble on expression in E. coli
1,MRGSTRDQNGTWEMESNENFEGYMKALDIDFATRKIAVRLTQTKVIDQDGDNFKTKTTSTFRNYDVDFTVGVEFDEYTKSLDNRHVKALVTWEGDVLVCVQKGEKENRGWKQWIEGDKLYLELTCGDQVCRQVFKKKLVPR,soluble
2,MGSDKIHHHHHHMAFFDLPLEELKKYRPERYEEKDFDEFWEETLAESEKFPLDPVFERMESHLKTVEAYDVTFSGYRGQRIKGWLLVPKLEEEKLPCVVQYIGYNGGRGFPHDWLFWPSMGYICFVMDTRGQGSGWLKGDTPDYPEGPVDPQYPGFMTRGILDPRTYYYRRVFTDAVRAVEAAASFPQVDQERIVIAGGSQGGGIALAVSALSKKAKALLCDVPFLCHFRRAVQLVDTHPYAEITNFLKTHRDKEEIVFRTLSYFDGVNFAARAKIPALFSVGLMDNICPPSTVFAAYNYYAGPKEIRIYPYNNHEGGGSFQAVEQVKFLKKLFEKG,soluble
3,GSHMASKISDNVRIKLYMEGTVNNHHFMCEAEGEGKPYEGTQMENIKVTKGGPLPFSFDILTPNCQYGSVAITKYTSGIPDYFKQSFPEGFTWERTTIYEDGAYLTTQQETKLDGNCLVYNIKILGCNFPPNGPVMQKKTQGWEPCCEMRYTRDGVLCGQTLMALKCADGNHLTCHLRTTYRSKKAAKALQMPPFHFSDHRPEIVKVSENGTLFEQHESSVARYCQTCPSKLGHN,soluble
4,MGSDKIHHHHHHMEDFWRIRATDTAWKGVLHLASPRRYSRGEVIIRAGEMVDSLFYLESGEVRMIRTSMEGSEKILMYIEEGTLFGETPFFTGQPILSTFVCSRPAVIWRFSRHSVYADLLPNHPEIVSSLLHTFAAKVSTLSNQSASLGLQNVAERLCTFLYVTSGESISGAHGAELKLSMKMRDIANLLGVHRTTLYKAIRDLEKEGVLENFTRDSVRIADVTRFLEMVHK,not soluble
5,MENQTKCNISYRRIRIDKKKPPKTALKIKCLFTFSGFQEMLHVDKVDSLQTEKVNIRASGLVEWSCYTFILRLHYDRGTYASFCVARSDSLGCIDLSRDAPIRGTYTEVDQMGLFISIEPTQSIRPGHFFKTYDPKTYYYTLQLLDDSKKIIDEIHLKKHWKHPLVEQINVEQNGLYGTLFKPPGKGPFPAVIFIPGSNGMLESGYAAVLASEGFLTFTFAYFAYKKDLPKLIPDVDIEFFEKPIEYVQNSPYCSGKIGLVGQSFGGLTANYLSTKYHQVSAVVALNCSAAFCRDNAVMKENGKPMETQILDEGMSDFVNQVLRQKPAFRDLYSNLTPTTSIPWARAPKNTAYRIVQCYDDMLVDAVPSIINICGNLRKTGHHVESELVPGGHFLYFPYFPHHGIIYNAQINMLWGFGGECYQHSKSQETTWKKNVEFFKKHLGDVKRIPEWKRESTVTLPVSTKSSKSLQCKL,not soluble
6,MSLVTNKLGRDIPQPYADQYGVFEGELANIKQYDESSRRIKPVKPGDSKLLGSVREAIEKTGLTDGMTISFHHHFREGDFIMNMVLEEIAKMGIKNLSIAPSSIANVHEPLIDHIKNGVVTNITSSGLRDKVGAAISEGLMENPVVIRSHGGRARAIASGDIHIDVAFLGAPSSDAYGNVNGTKGKATCGSLGYAMIDAKYADQVVILTDNLVPYPNTPISIPQTDVDYVVTVDAIGDPQGIAKGATRFTKNPKELLIAEYAAKVITNSPYFKEGFSFQTGTGGASLAVTRFMREAMIKENIKASFALGGITNAMVELLEEELVEKILDVQDFDHPSAVSLGKHAEHYEIDANMYASPLSKGAVINQLDTCILSALEVDTNFNVNVMTGSDGVIRGASGGHCDTAFAAKMSLVISPLIRGRIPTFVDEVNTVITPGTSVDVIVTEVGIAINPNRQDLVDHFKSLNVPQFSIEELKEKAYAIVGTPERIQYGDKVVALIEYRDGSLMDVVYNVEGHHHHHH,soluble
7,MGSDKIHHHHHHMSLSAEQIVEYRAFAEQLADAAAAAIAPYFRASLDVEDKGGRLYDPVTVADKAAEDAMRELIQARYPEHGILGEEAGIAVGSSPLTWVLDPIDGTRAFITGLPLWGTLIALNDGARPVLGVMNQPFTGERFVGTPAGAWRSGTPLKTRACADLSAATLMCTTPDMFDTAERKAAFEAVAGKARLMRYGGDCYAYCMLASGFVDVIVEASLQPYDVQALMPIIEGAGGVITAWDGSSAQDGGCVVACGDPVLHAQVLEMLRHAM,not soluble
8,MMNKDLSYCIVLSSEQLSYLAGSKYGIDRMKILNRLIEATVLEQTEYSKKGFAMTLQVGQAALSEVELSCKLGYDKKTISRVIDKMNQLGIVASVQSNRTSIHTQKCVSAWMLDGKRIDNPFYVRMKNRKDGNEKTANRPYNNSILPMKQQHILESNAEANCPTQTQTDNTAVSDETYSPDLSTSPTSSETPVTAYDDKNRNGYDELKAETNNHELLHTPTTTSGYEIAGNGSDNDAAQVNSTSAYPTTTLASPQPLAEEEPTNDQGNDWQL,not soluble
9,MAHHHHHHMQFVSDLGLELSVFVCHLYAKYSEEPLKAFHELVLRTRSSCCGSDDSSNYLSLATLSGTQWYQDMTKRYASLRQRLRGERDNDVQEAREVTLSLYPQGCRVSEYADAIVTSAAMLTSNIPSTVLERFASCRVKDLNEKGCVSISADELASDLIERPVLDSFTPSRWWESDKTAPSSSLKDGLVAVKSIGLRVQPVEILIFYTYNGRPRRRFIPLDGLLHENSPIAPLLRRLVRSHGMLVSESQLRSYLQRLQELMRKSVESHASTVKPEGPLQPQFDWKQQIGYSDNAPAAHNTGEEEQHMTSAKTGEPEVNKADVGLLYRDPEAALKNVDLNDADDITLQEFKAKMNEGFMQNALRPGDPGYVYDKRLDVNPTERSEWDDSD,not soluble
10,MIIIQLNERQLKIIDIVKENEPITSESIASSLNVTRATLRSDLAILTMTGILDARPKVGYFYSGVSEINLIGKSVKEKTVEDIMSMPVLAKKDESIYDVIVTMFLSDVGSIVIIDENEELCGVVSRKDLLKATIGGSDINKMPIGMIMTRTPNVVTLTKGASVLLASRKIIEHEVDSIPIVEYKGEDKNHMRVVGRISKTNITKLFLEIVDN,not soluble
11,MLRIEDLQLAAALAQAPSLSAAARALNVTPPALSMRLRKLEAGLGLALAVRSARRLSLTPEGERLAREAAALLAQLQALPESLRRDDSRLTGTLRVAAPFGYGRRHIAPVLARLAQRHPELRVQLDLRETPWPDHQDADAVVHIGAVRDSSWVTRRLADNERWLCASPQYLQDHGMPREPRDLLHHRCICIRENDEDASLWRFRRADAGAAGRKAAETVRIAPAYVSNDGNVARAWAEQGLGLVVRSQWDAEGAVARGALVRVMPQWQLDSAPVMLLVPGRKGRSARVKALLECFDEQAGHA,not soluble
12,MGSDKIHHHHHHMKQILNTLYVMTQGAYVCLDHETVKVEVKGALQMQVPLHHLGAIVTMGNVMMSPFIMARCAEDGRALVILDRNGKFKCRVVGKTSGNVLLRQTQYEAVRDRERSAAIARNMVAGKVKNARQILMRGARETTDADESAVLRKAGDTLADALFHLKDATDIDHVRGLEGEAANAYFQVFDRMVKEEERPAFRMNGRNRRPPLDPMNALLSFLYTLLLNDCISAVEGVGLDSQMGFLHVLRPGRPSLGLDIMEEFRAVLADRLALTLINRKQITEKHFEVRPGGATYLDDAGRKEVIMAYQKRKQDEFHHPVLDQKVPFGLLPHVQARLLARHLRGDLEQYTPVLYS,not soluble
13,MAHHHHHHSLIDGLLITELNKLTPGSSYIFLDYDGTLVPIIMNPEQSLADPELIEMLTELRSKYKLFIVSGRSPEEIKRFIPLDLNLICYHGACSIVNGKTYYYNNAQSFLGIFNEIYQSSLNLVNEFPGLRIYKKNLAVLYHFGLMKPQDVPALERVIVEISQKEHVDVYKGKMIFELRVPGVNKGIAIKNVRDEETALIAGDDATDECSFKYNEDAITIKVGPGKTSAHFRVNDYSEMREVLKLLLNNAEKRSEG,soluble
14,MAHHHHHHMYAIADTDDILIRSNPCRLSVNGVHISVCNEDVVGDMRDRMVERWPTADGSLRRVVEALVNGRLYVPLYSLPVATADLKHLPHLRMDYVPSQNELLEIKPAAAALASSTATKGDRRGNADGSDATTSTSGASSSRGWETVFSVAEQPSTDMAAWLQHKVKRAKLEDAAGDNEEGDAASAPGGPVTPSTPTASSKTEYLPHIMFLPSTRPQFATVTHQSEEVDGADIDSAESASGVLVVNQEVWSTRSSPKFELRVAEVTIPNTDLVLRRGATSTNGVTCGVLHIYSA,soluble
15,MIKNILILSSNNTGHGHKSITESLLEQFSHYPDVNVHVIDGFTLAGNFGLRIGKLYGSVTRNAKELWKLVWELSLKKPSLLNDFTEVAIKDNFLKLICNIKPDLILSVHPNFNGSVLNILEDYNIKVPFVTLLADIVSITPLWADPRADYIICPSKESKFKCLEFGVSESKLIETGFPVRQKFLKHLEKNGENNTQNIKKYTGDRPLECLIMSGGEGSGNMSRIASILLKNFNCRVKIVTGRNRLLKRRLERTIGERFGDRVEIYGFTENIQDLMLSSDIAFTRGSPNVMMEAVACNVPLIITGNLPGQEEGNPAYMQKYNLGVVCKDVRKLRHTVNELLENNGEKLNRIKQSQKEFLNPNVAKEIVSFLLSIDKQEEPCFPEDLFSGDFPRFWELHKRISMSHNKKIILKRHKKIGTKQK,soluble
16,PKQRCRAPACDHFGNAKCNGYCNECFQFKQMYG,soluble
17,MIQLNLPPYEHRIHQEDESMFIFDSIRRRYVALTPEEWVRQHFVHYLTDVLGYPADLIRNEAQLRIDRRRKRCDTVVYDTNLRPIVLCEYKAPTVSLTQKTMDQILCYNFIFRVPLLLLSNGLQHAACLVDYEQSGYVFLPEIPSYEELTTIIQSNQ,not soluble
18,KVGFKIGGGMEYGFNEIWSLQPSLFVSSKGAKKDELSVNAVYLELPVMAAARFKVADNTNIVLSAGPYFACGIAGNSKVDLGKGRLEVDTFGDDGLLKRGDVGLGIGVAAEFGKIIAGLDGQFGFVDVMDNVNGKNLNLSISVGYKF,not soluble
19,MDIGDHGTHCAGIIAGFGPNVKIASLKHLSGNKFKDLDNWVSTMIKAINYADAMDIKIVNVSLGLHKSQIGDRPFDSQALNDAISNADLLFVTAAGNFNKNIDLPDDVIYPASCTAENIITVANTDKDDKLYESSNYGVISVDLAAPGTDIRSTIPTHLAGEGGPYDIKTGTSMSAPHVAGAAALLLSSNPSLTTQQLKDLILSSVDFLPDLQGKVATSGRLNVAKALRKIRTSVKIGDIDGNGEISSIDYAILKSHLINSNLTFKQLAAADVDGNGYVNSIDLAILQMYLLGKGGTSDIGKNRIYTYGDIDNNGIVDENDYILICNHINGTGQLSDASLFAADADGNNVIDQTDRILIEKYITGRITHLPVGNQ,not soluble
20,MPTLGFRFRAYTDEQTLRALKAQLKLACKIYNTLRWADIYFYQRDGKGLTQTELRQLALDLRKQDDEYKQLYSQVVQQIADRYYEAKKRFFEGLARFPKEKKPHKYYSLVYTQSGWKILHVREIRKGSKKNKKKLITLKLSNLGTFKVIVHRDFPLDKVKRVVVKLTRSERIYITFVVEGYEFPKLPNTGKVVAIDVGVEKLLVTPDGEYFPNLRPLEKALWKVKHLHRELSRKKFLSNNWFKAKVKLARAYEHLKNLRSDLYMKLGKWFAEHYDVVVMEGIHAKQLVGKSLRSLRRRLSDVGFGELRDVLKYQLEKYGKKLILVNPAYTSKTCARCGYVKNDLSLSDRVFVCPNCGWIADRDYNASLNILKGAGSERSLVPVELRPLPVPALRYWHGRAVKQEAPSFMRGLEHHHHHH,soluble
21,MASFRSTLALVNSAKLSLSTRTMASHPLAGLLGKLNHVAIATPDLKKSSEFYKGLGAKVSEAVPQPEHGVYTVFVELPNSKIELLHPFGEKSPIQAFLNKNKDGGMHHICIEVRDIHEAVSAVKTKGIRTLGEKPKIGAHGKEVMFLHPKDCGGVLIELEQE,not soluble
